Source: US20230392122A1, “LONG-TERM AND FUNCTIONAL CULTURE OF HEPATIC ORGANOIDS (eHEPO) DERIVED FROM EPCAM+ ENDODERMAL PROGENITOR CELLS DIFFERENTIATED FROM INDUCED PLURIPOTENT STEM CELLS” (DOKUZ EYLUL UNIVERSITESI REKTORLUGU, priority 2020, published 2023)
“Also recorded” adds a separate entry of the source.

Test system: IPSC-derived endoderm cells
Assay: Endoderm differentiation of IPSCs with R-spo1 added, flow cytometry for EpCAM
Assay type: cell-based, human
Conditions: 5 ng/ml R-spo1 added to endoderm medium
Method: To start with, IPSCs were differentiated into definitive endoderms in a medium containing 100 ng/mL Activin A, 50 ng/mL Wnt3a, and 5 ng/mL R-spo1factors for 5 days (FIG. 1A). During the definitive endoderm development stage, the parenchymal cells of the liver derive from a specific germ layer. […] In particular, it is evident that following independent differentiations, the percentage of CXCR4+/EpCAM+ endodermal cells derived from three independent IPSC lines (WT1, WT2 and WT3) is not too different from one another, and that the endodermal induction step of the protocol can be repeated (FIG. 1B). At this point of the assay, the differentiation medium was modified to obtain more EpCAM+ endoderm cells. Wnt signalling pathway agonist and 5 ng/ml R-spo1, which is known to play a significant role in stem cell growth, were added to the endoderm medium. […] As a result, this protocol enables IPSCs to differentiate into more EpCAM+endoderm cells in two-dimensional mediums.

B1: R-spo1: Wnt signalling pathway agonist known to play a significant role in stem cell growth, added to the endoderm medium (protein, UniProt Q2MKA7 21-263, looked up)
R-spondin-1: SRGIKGKRQRRISAEGSQACAKGCELCSEVNGCLKCSPKLFILLERNDIRQVGVCLPSCPPGYFDARNPDMNKCIKCKIEHCEACFSHNFCTKCKEGLYLHKGRCYPACPEGSSAANGTMECSSPAQCEMSEWSPWGPCSKKQQLCGFRRGSEERTRRVLHAPVGDHAACSDTKETRRCTVRRVPCPEGQKRRKGGQGRRENANRNLARKESKEAGAGSRRRKGQQQQQQQGTVGPLTSAGPA
DIC images
  morphology of the cells: not affected negatively
Flow cytometry, three healthy IPSCs
  EpCAM ratio / number of EpCAM (+) cells: causes an increase in the number of EpCAM (+) cells; also recorded: increases the EpCAM ratio considerably
